For experiment [1], the target named is YenA2 (Yersinia entomophaga) (UniProt B6A878). Put plainly: cryo-EM structure; YenTcA pore form inserted into POPC liposomes (1:2 w/w, 3-5 freeze/thaw cycles), single-particle cryo-EM, 11 Å resolution.
The target is the same in experiment [2]. Put plainly: cryo-EM structure; YenTcA soluble pre-pore form, single-particle cryo-EM, 4.4 Å average resolution, C5 symmetry; 0.1 mg/mL in 25 mM Tris, 150 mM NaCl, pH 7.5, with 10 mM NDSB-195.

Sequence of YenA2 (B6A878 whole entry): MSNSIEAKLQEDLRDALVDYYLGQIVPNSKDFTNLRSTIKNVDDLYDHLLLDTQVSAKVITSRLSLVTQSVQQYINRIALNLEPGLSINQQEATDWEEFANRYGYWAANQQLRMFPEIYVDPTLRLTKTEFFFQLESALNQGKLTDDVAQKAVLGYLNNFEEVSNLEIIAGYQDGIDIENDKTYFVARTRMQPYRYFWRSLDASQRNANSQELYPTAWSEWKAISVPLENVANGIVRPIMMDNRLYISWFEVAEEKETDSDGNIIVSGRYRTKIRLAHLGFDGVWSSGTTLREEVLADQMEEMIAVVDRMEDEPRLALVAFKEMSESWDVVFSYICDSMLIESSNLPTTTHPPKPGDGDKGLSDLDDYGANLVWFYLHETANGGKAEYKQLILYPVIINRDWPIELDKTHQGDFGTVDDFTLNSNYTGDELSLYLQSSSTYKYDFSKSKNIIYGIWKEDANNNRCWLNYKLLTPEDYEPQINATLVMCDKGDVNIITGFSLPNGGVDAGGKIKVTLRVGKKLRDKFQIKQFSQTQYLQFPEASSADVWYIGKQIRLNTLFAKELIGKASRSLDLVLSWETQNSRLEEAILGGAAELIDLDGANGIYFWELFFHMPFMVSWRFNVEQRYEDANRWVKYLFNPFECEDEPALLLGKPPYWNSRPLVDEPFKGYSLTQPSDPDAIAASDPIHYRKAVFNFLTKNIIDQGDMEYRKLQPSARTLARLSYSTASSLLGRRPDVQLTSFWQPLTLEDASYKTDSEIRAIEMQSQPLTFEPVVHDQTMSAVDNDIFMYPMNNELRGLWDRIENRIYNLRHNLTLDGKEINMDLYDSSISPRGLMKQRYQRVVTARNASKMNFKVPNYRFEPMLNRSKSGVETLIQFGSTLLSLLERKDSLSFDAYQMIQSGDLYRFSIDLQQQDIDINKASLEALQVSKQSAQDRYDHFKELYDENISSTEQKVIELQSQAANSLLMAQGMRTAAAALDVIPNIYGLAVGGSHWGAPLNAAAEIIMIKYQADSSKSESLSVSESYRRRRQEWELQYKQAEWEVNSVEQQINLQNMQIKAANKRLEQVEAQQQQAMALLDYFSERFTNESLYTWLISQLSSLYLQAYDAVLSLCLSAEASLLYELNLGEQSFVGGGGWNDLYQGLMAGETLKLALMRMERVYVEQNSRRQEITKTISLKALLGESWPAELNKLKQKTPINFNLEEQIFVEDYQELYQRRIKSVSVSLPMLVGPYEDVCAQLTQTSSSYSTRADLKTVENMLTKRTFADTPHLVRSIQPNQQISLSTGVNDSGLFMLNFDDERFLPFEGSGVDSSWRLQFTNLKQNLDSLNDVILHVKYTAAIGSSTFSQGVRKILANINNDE

The stoichiometry N is the number of molecules, sites or subunits per partner or assembly. In the case of “YenA2 (from UniProt B6A878 1-1364) (natural protein)”, the stoichiometry N in experiment [1] and in experiment [2] was 5 throughout.

The values above are taken from article PMC6486591.
